Source: US20240270821A1, “GIP/GLP1/GCG TRI-RECEPTOR AGONISTS AND USES THEREOF” (priority 2023, published 2024)
Substitutions are numbered along the chain they refer to.

B1: Example 1197 (peptide)
chain: YXQGTXTSDXXIXLDXKAQXEFIEXLIEGGPPSXXPPPXGGGE
modifications: Lys acylated AEEA-γGlu-C18 diacid; non-natural residues; C-amide; synthetic construct; SITE 2: note = 2-Aminoisobutyric Acid; SITE 6: note = alpha-methyl-2-fluoro-L-phenylalanine; SITE 10: note = 3-(4-Pyridyl)-L-alanine; SITE 11: note = alpha-methyl-L-serine; SITE 13: note = alpha-methyl-leucine; SITE 16: note = L-ornithine; SITE 17: note = Lysine is chemically mo
B2: Example 1199 (peptide)
chain: B1 chain with X39S
modifications: Lys acylated with AEEA-γGlu-C18 diacid; non-natural residues; C-amide; synthetic construct; SITE 2: note = 2-Aminoisobutyric Acid; SITE 6: note = alpha-methyl-2-fluoro-L-phenylalanine; SITE 10: note = 3-(4-Pyridyl)-L-alanine; SITE 11: note = alpha-methyl-L-serine; SITE 13: note = alpha-methyl-leucine; SITE 16: note = L-ornithine; SITE 17: note = Lysine is chemically mo
B3: Example 1201 (peptide)
chain: B1 chain with X35E, X39S
modifications: non-natural residues; acylated Lys; C-terminal amide; synthetic construct; SITE 2: note = 2-Aminoisobutyric Acid; SITE 6: note = alpha-methyl-2-fluoro-L-phenylalanine; SITE 10: note = 3-(4-Pyridyl)-L-alanine; SITE 11: note = alpha-methyl-L-serine; SITE 13: note = alpha-methyl-leucine; SITE 16: note = L-ornithine; SITE 17: note = Lysine is chemically mo
B4: Example 1189 (peptide)
chain: YXQGTXTSDXXIXLDXKAQXEFIEXLIEGGPPSXXPPPXGS
modifications: non-natural residues, C-terminal amide, acylated Lys with fatty diacid; synthetic construct; SITE 2: note = 2-Aminoisobutyric Acid; SITE 6: note = alpha-methyl-2-fluoro-L-phenylalanine; SITE 10: note = 3-(4-Pyridyl)-L-alanine; SITE 11: note = alpha-methyl-L-serine; SITE 13: note = alpha-methyl-leucine; SITE 16: note = L-ornithine; SITE 17: note = Lysine is chemically mo
B5: Example 1194 (peptide)
chain: B4 chain with X39E, S41E
modifications: non-natural residues; lipidated Lys; C-terminal amide; synthetic construct; SITE 2: note = 2-Aminoisobutyric Acid; SITE 6: note = alpha-methyl-2-fluoro-L-phenylalanine; SITE 10: note = 3-(4-Pyridyl)-L-alanine; SITE 11: note = alpha-methyl-L-serine; SITE 13: note = alpha-methyl-leucine; SITE 16: note = L-ornithine; SITE 17: note = Lysine is chemically mo
B6: Example 1193 (peptide)
chain: B4 chain with X35E, S41E
modifications: non-natural residues (Aib, αMeF(2F), 4Pal, Orn, Me4Pal); lipidated Lys; C-amide; synthetic construct; SITE 2: note = 2-Aminoisobutyric Acid; SITE 6: note = alpha-methyl-2-fluoro-L-phenylalanine; SITE 10: note = 3-(4-Pyridyl)-L-alanine; SITE 11: note = alpha-methyl-L-serine; SITE 13: note = alpha-methyl-leucine; SITE 16: note = L-ornithine; SITE 17: note = Lysine is chemically mo
B7: Example 1196 (peptide)
chain: B4 chain with G40S, S41E
modifications: non-natural residues; lipidated Lys AEEA-γGlu-C18 diacid; C-term amide; synthetic construct; SITE 2: note = 2-Aminoisobutyric Acid; SITE 6: note = alpha-methyl-2-fluoro-L-phenylalanine; SITE 10: note = 3-(4-Pyridyl)-L-alanine; SITE 11: note = alpha-methyl-L-serine; SITE 13: note = alpha-methyl-leucine; SITE 16: note = L-ornithine; SITE 17: note = Lysine is chemically mo
B8: Example 1208 (peptide)
chain: B4 chain with P32S, X34G, X35E, X39S
modifications: not fully specified; synthetic construct; SITE 2: note = 2-Aminoisobutyric Acid; SITE 6: note = alpha-methyl-2-fluoro-L-phenylalanine; SITE 10: note = 3-(4-Pyridyl)-L-alanine; SITE 11: note = alpha-methyl-L-serine; SITE 13: note = alpha-methyl-leucine; SITE 16: note = L-ornithine; SITE 17: note = Lysine is chemically mo
B9: Example 1192 (peptide)
chain: B4 chain with P32S, X35A, X39E, S41E
modifications: non-natural residues; AEEA-γGlu-C18 diacid on Lys; C-terminal amide; synthetic construct; SITE 2: note = 2-Aminoisobutyric Acid; SITE 6: note = alpha-methyl-2-fluoro-L-phenylalanine; SITE 10: note = 3-(4-Pyridyl)-L-alanine; SITE 11: note = alpha-methyl-L-serine; SITE 13: note = alpha-methyl-leucine; SITE 16: note = L-ornithine; SITE 17: note = Lysine is chemically mo
B10: Example 1195 (peptide)
chain: B4 chain with S41E
modifications: non-natural residues; acylated Lys; C-terminal amide; synthetic construct; SITE 2: note = 2-Aminoisobutyric Acid; SITE 6: note = alpha-methyl-2-fluoro-L-phenylalanine; SITE 10: note = 3-(4-Pyridyl)-L-alanine; SITE 11: note = alpha-methyl-L-serine; SITE 13: note = alpha-methyl-leucine; SITE 16: note = L-ornithine; SITE 17: note = Lysine is chemically mo
B11: Example 1203 (peptide)
chain: B4 chain with G4A, P32S, X34G, X35A, X39S
modifications: synthetic construct; SITE 2: note = 2-Aminoisobutyric Acid; SITE 4: note = D-amino acid; SITE 6: note = alpha-methyl-2-fluoro-L-phenylalanine; SITE 10: note = 3-(4-Pyridyl)-L-alanine; SITE 11: note = alpha-methyl-L-serine; SITE 13: note = alpha-methyl-leucine; SITE 16: note = L-ornithine; SITE 17: n
B12: Example 1202 (peptide)
chain: B4 chain with E24Q, P32S, X34G, X35A, X39S
modifications: synthetic construct; SITE 2: note = 2-Aminoisobutyric Acid; SITE 6: note = alpha-methyl-2-fluoro-L-phenylalanine; SITE 10: note = 3-(4-Pyridyl)-L-alanine; SITE 11: note = alpha-methyl-L-serine; SITE 13: note = alpha-methyl-leucine; SITE 16: note = L-ornithine; SITE 17: note = Lysine is chemically mo
B13: Example 1191 (peptide)
chain: B4 chain with X34G, X35E, X39E, S41E
modifications: non-natural residues; lipidated Lys AEEA-γGlu-C18 diacid; C-term amide; synthetic construct; SITE 2: note = 2-Aminoisobutyric Acid; SITE 6: note = alpha-methyl-2-fluoro-L-phenylalanine; SITE 10: note = 3-(4-Pyridyl)-L-alanine; SITE 11: note = alpha-methyl-L-serine; SITE 13: note = alpha-methyl-leucine; SITE 16: note = L-ornithine; SITE 17: note = Lysine is chemically mo

Target: hGLP-1R (Homo sapiens, UniProt P43220)
Assay: cell-based or functional assay

Sequence of hGLP-1R (P43220 24-463): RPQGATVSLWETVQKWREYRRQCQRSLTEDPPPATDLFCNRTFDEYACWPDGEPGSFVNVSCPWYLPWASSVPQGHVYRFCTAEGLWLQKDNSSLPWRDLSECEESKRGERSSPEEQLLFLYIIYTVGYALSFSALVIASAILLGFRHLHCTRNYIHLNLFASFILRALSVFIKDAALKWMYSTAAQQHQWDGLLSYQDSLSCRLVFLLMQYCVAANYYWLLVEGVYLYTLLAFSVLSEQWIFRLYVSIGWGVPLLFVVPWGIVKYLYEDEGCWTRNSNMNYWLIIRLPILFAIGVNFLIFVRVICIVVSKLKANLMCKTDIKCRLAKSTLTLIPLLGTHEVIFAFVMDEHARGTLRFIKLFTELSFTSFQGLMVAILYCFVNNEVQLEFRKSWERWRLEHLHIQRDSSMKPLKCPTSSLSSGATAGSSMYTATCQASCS

B1 and B2 are within 1.5-fold of each other in Relative cAMP EC50: 0.407 nM for the first, 0.5 nM for the second.

First: B3
Second: B4
The Relative cAMP EC50 of the first is 3-fold higher: 0.888 nM for the first, 0.292 nM for the second.

B5 and B6 are within 1.5-fold of each other in Relative cAMP EC50: 0.51 nM for the first, 0.544 nM for the second.

B7 and B8 are within 1.5-fold of each other in Relative cAMP EC50: 0.418 nM for the first, 0.526 nM for the second.

B9 and B10 are within 1.5-fold of each other in Relative cAMP EC50: 0.499 nM for the first, 0.367 nM for the second.

B11 and B12 are within 1.5-fold of each other in Relative cAMP EC50: 0.292 nM for the first, 0.237 nM for the second.

B13 was tested, and the Relative cAMP EC50 was 0.945 nM.

B1 and B2 are within 1.5-fold of each other in cAMP Rel EC50 (in the presence of 1% HSA): 46.1 nM for the first, 63.9 nM for the second.

Going from B3 to B4, the cAMP Rel EC50 (in the presence of 1% HSA) falls from 93.9 nM to 45.4 nM (2.1-fold).

B5 and B6 are within 1.5-fold of each other in cAMP Rel EC50 (in the presence of 1% HSA): 57.4 nM for the first, 66.2 nM for the second.

B7 and B9 are within 1.5-fold of each other in cAMP Rel EC50 (in the presence of 1% HSA): 45.4 nM for the first, 59.5 nM for the second.

First: B10
Second: B13
The cAMP Rel EC50 (in the presence of 1% HSA) of the first is 1.9-fold lower: 44.2 nM for the first, 82.3 nM for the second.

B8 and B11 are within 1.5-fold of each other in cAMP Rel EC50 (1% HSA): 44.8 nM for the first, 38.9 nM for the second.

For B12, the cAMP Rel EC50 (1% HSA) was 23.1 nM.

Target: T1, human GIP receptor (human) (UniProt P48546)
T1 sequence (looked up): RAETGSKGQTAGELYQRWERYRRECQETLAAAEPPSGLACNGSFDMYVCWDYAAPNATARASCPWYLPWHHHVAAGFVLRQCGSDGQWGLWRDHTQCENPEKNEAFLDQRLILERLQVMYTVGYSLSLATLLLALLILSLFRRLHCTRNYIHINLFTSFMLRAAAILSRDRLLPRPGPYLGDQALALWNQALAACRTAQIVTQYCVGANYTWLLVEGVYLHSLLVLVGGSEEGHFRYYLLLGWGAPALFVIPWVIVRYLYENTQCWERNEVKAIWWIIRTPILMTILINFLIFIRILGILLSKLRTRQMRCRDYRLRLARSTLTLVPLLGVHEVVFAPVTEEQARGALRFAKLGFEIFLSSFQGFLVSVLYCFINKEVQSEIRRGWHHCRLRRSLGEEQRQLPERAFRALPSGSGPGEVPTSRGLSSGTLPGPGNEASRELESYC
Assay: cell-based or functional assay

B1 and B2 are within 1.5-fold of each other in Relative cAMP EC50: 0.00666 nM for the first, 0.0076 nM for the second.

Going from B3 to B4, the Relative cAMP EC50 falls from 0.00959 nM to 0.00597 nM (1.6-fold).

B5 and B6 are within 1.5-fold of each other in Relative cAMP EC50: 0.00725 nM for the first, 0.00897 nM for the second.

B7 and B8 are within 1.5-fold of each other in Relative cAMP EC50: 0.00756 nM for the first, 0.00907 nM for the second.

B9 and B10 are within 1.5-fold of each other in Relative cAMP EC50: 0.00924 nM for the first, 0.00708 nM for the second.

First: B11
Second: B12
The Relative cAMP EC50 of the first is 12-fold higher: 0.0774 nM for the first, 0.00635 nM for the second.

B13 gave a Relative cAMP EC50 of 0.00992 nM.

B1 and B2 are within 1.5-fold of each other in cAMP Rel EC50 (in the presence of 1% HSA): 0.639 nM for the first, 0.733 nM for the second.

Compared with B3, B4 is 1.7-fold lower in cAMP Rel EC50 (in the presence of 1% HSA): 1.02 nM for the first, 0.584 nM for the second.

B5 and B6 are within 1.5-fold of each other in cAMP Rel EC50 (in the presence of 1% HSA): 0.759 nM for the first, 0.803 nM for the second.

First: B7
Second: B9
The cAMP Rel EC50 (in the presence of 1% HSA) of the first is 1.8-fold lower: 0.605 nM for the first, 1.06 nM for the second.

B10 and B13 are within 1.5-fold of each other in cAMP Rel EC50 (in the presence of 1% HSA): 0.637 nM for the first, 0.931 nM for the second.

Compared with B8, B11 is 11-fold higher in cAMP Rel EC50 (1% HSA): 0.786 nM for the first, 8.5 nM for the second.

B12 was tested, and the cAMP Rel EC50 (1% HSA) was 0.471 nM.

Target: human glucagon receptor (human) (UniProt P47871)
Assay: cell-based or functional assay

Sequence of human glucagon receptor (human) (P47871 26-477): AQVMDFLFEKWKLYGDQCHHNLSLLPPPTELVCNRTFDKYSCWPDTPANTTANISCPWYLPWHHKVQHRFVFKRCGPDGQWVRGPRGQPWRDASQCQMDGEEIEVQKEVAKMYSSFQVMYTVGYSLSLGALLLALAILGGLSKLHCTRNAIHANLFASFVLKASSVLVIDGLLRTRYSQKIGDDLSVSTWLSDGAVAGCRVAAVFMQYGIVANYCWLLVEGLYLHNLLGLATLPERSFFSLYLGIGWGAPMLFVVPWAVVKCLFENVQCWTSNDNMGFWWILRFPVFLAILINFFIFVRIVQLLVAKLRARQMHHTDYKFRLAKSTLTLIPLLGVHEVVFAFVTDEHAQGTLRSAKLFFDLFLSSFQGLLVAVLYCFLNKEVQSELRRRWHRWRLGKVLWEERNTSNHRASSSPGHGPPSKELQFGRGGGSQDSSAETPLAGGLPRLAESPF

B1 and B2 are within 1.5-fold of each other in Relative cAMP EC50: 1.88 nM for the first, 2.05 nM for the second.

B3 and B4 are within 1.5-fold of each other in Relative cAMP EC50: 1.76 nM for the first, 1.59 nM for the second.

B5 and B6 are within 1.5-fold of each other in Relative cAMP EC50: 2.02 nM for the first, 1.56 nM for the second.

Compared with B7, B8 is 1.9-fold higher in Relative cAMP EC50: 1.9 nM for the first, 3.52 nM for the second.

B9 and B10 are within 1.5-fold of each other in Relative cAMP EC50: 1.54 nM for the first, 1.74 nM for the second.

First: B11
Second: B12
The Relative cAMP EC50 of the first is 5.2-fold higher: 2.58 nM for the first, 0.5 nM for the second.

Work on B13 yielded a Relative cAMP EC50 of 3.06 nM.

B1 and B2 are within 1.5-fold of each other in cAMP Rel EC50 (in the presence of 1% HSA): 288 nM for the first, 352 nM for the second.

B3 and B4 are within 1.5-fold of each other in cAMP Rel EC50 (in the presence of 1% HSA): 234 nM for the first, 248 nM for the second.

B5 and B6 are within 1.5-fold of each other in cAMP Rel EC50 (in the presence of 1% HSA): 215 nM for the first, 202 nM for the second.

B7 and B9 are within 1.5-fold of each other in cAMP Rel EC50 (in the presence of 1% HSA): 257 nM for the first, 218 nM for the second.

B10 and B13 are within 1.5-fold of each other in cAMP Rel EC50 (in the presence of 1% HSA): 242 nM for the first, 243 nM for the second.

B8 and B11 are within 1.5-fold of each other in cAMP Rel EC50 (1% HSA): 451 nM for the first, 436 nM for the second.

Binder B12 has a cAMP Rel EC50 (1% HSA) of 70.3 nM.
